Results reported in the supplement of paper PMC12636428.

Tested on: Saccharomyces cerevisiae
Test: transcriptional activation domain activity (GFP:mCherry ratio, weighted mean of sorted bins, harmonized to initial dataset scale) (arbitrary fluorescence ratio units); higher = stronger transcriptional activation
Settings: beta-estradiol 1 µM; induction time 4 h
How it was run: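 Values are activation activity, found as the read-weighted mean of bin median fluorescence, averaged across barcodes and then mapped linearly onto the initial dataset scale. Barcoded protein tiles fused to an estradiol-inducible synthetic transcription factor were integrated at the URA3 locus of GFP-reporter yeast diploids. Cells were induced for 4 hours at 30 °C with 1 uM beta-estradiol in SC, sorted into 8 bins by GFP:mCherry ratio, and barcode-sequenced, with tiles under 50 reads discarded.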

Row | Sequence | transcriptional activation domain activity
1 | LVHFILTGSDFIWFFSYTPEAVALYLFLVEWSKLNYFWVALMYIWNVMPLFLL | 63600
2 | LVHGRWSYQRVADMHANFFYKNVIWTFGLFWYLPFNSFDATYLYHYTFILLCN | 61000
3 | LVHNTLCMLDLIPLLSVRLLLMSLSICFGWYTIFVFAAGVIETVHLTIGRTFT | 33900
4 | LVLKMILDRLAEPGDSLLNIDFSTLIHQFAKYLNKVPSNYVVLRIKIKICHLV | 61000
5 | LVLLFSLYPLLLPLLPLFPFLLSLFLPLPLNLPKIPAAFFFVFLNIYFLFSIL | 27700
6 | LVLQTDFLLMVERVDVCLEFLEAHRDFREVEIYLLRFQQCLTRAMTLIKMFFV | 51900
7 | LVLRSPAILTLEEEEDVAANLSQYSVQCSEVDKFLLTYVILKLKLVKGKCLIF | 72300
8 | LVLRSVILSLMVFLVIFCSEYFLFPFCHSICCYGYIYILIDSWVSFSLLVFFS | 65700
9 | LVLTGDAHSTYDVEVLVLMYILICGPFNFISGQLGEYRSIALVNVEFVVVWPA | 63300
10 | LVLVAILGIVIPLDGFFGYLLTSLAIIWCSYSSSSMFTVVGRMSSMKWLVAYP | 57000
11 | LVLYHDKFTTYLFAVFFFSLLPHVISSLFFFFFFFFWFLIKCIAMTPQFLFFF | 34200
12 | LVMAHYLYANACAKGEHLIVTTWDMYYEKWGFMLIFWNMAGVPLSYCHCTLYL | 65300
13 | LVMWTVILCPVFSFPDRGHGSMLFFLFKLCLAMLLTYLLAMLWFHCVYCIVVF | 32700
14 | LVPWRPQKVLWLKVFYLLTRYLAFVDIPINLYSYLGFGISLPACQVLFSWYCW | 56100
15 | LVQIVCVAGMHVTLYEQSCLYKCENLKRIITSFHHVNRKVRDAFINLYGKLNP | 74600
16 | LVRDGILYFFVYTYRNALYQVYVVFGLAAVATLTLNAQLVLNTFLFIIFYVLV | 56900
17 | LVREHELLGVIICHLVKSNQSGLTDLEYLLNIVKKIDKYDNLLVHYFPALGAL | 24500
18 | LVRQEDLINIAFHFVAKIPCTWPLPLRKAIADLHHYGGLHVGCTVSALFWYIL | 45300
19 | LVSALWVLNTLHSALMFHLVYHYLILNAFDLFELSQNVWSLPASMIVHLIMAF | 47500
20 | LVSHTVFKIIAICRHYAPPDGYMLAYVLCSSFALASTLWCTLLIICRIVILVQ | 39100
21 | LVTVRTMYRSYVEHGSGIGLTFARLITKDGLVLAISDFVLVFSTFLCVPFVKL | 44300
22 | LVVCCLASQVFIDSILLLPVKIVPPFYRLLSGVVNLVICRLTLFFLGFWWIPV | 59500
23 | LVVFVFLILVVFVFLILVVFVFLILLILAFFVFLILLALLIFLILLVFLVFLV | 30600
24 | LVVKVLNNTAFSPFFTFFIPVLYWSQNQSWSAPTVFWSTAWFLLVCIFSLLKL | 20900
25 | LVVVLAVTKVMLLVLLIISYQILKQLLGIYFKCIHFLIYFFMLPYYGTLLSIL | 47500

Row | Sequence | transcriptional activation domain activity
26 | LVWLDNWPAGLKLNTELSRFLCLCFMSLTDIWGNLLAPYLPLILRIIGIMGRT | 57200
27 | LVYLARSLFFSLLFKRLYILYFLEVCIWHIFGFFFYLITLCANLVMPLLLCSV | 57600
28 | LVYNDCMYIIFHLHMFEYRYGKQLAKTLLYWTYAHTHFCQLVQVESALRQVIQ | 48100
29 | LVYPIVYLYMDRFFMFVLCSPPSHVLGCWESVTVRTYVGILFPLLICCLFYVL | 41100
30 | LWDANSFLTPMAQGLFKNLKSFEMLGMNCKVIRALILLIHRLWLLTNRLYRYN | 34000
31 | LWELLLNILKENGAKEKCILPCIVDFLPKNLVLVHCIHAYLHFRILVGLQCMT | 33700
32 | LWFFFKGMDGMLHPPCSTWTFFFAKVNLYTWLRTFMKIVFVFMGLLHAIIIFW | 60200
33 | LWGHVVMEFCCWDFVRRASGLDSILLLLVYIFSSLPYFFFVLFVCHIAILLLT | 34500
34 | LWHLVYEPILKGIHEHLLLLDEIIEIFGPDVEKELFRRVYYYLSLLCMHSGTH | 24600
35 | LWLYLAKQLFYEDLGWFFLLLAFYFTWPLIFLLFLIFWMLFVLVYVLFYLVSF | 52300
36 | LWNSYLQSMDDTTGKNSGNYQQVDNDDNMSLLNLPILEETVSSGQDDKVEPDE | 54600
37 | LWPLPVITRYIIGISLLVSMLNFMGLLHLKCSSPSYVIHRLEIANLLMSPFLF | 46200
38 | LWQYMEFRILVYIFFGLSFIPLSIFLLFCTCLSSFIFFVAAGIWLFVGTIAFF | 54200
39 | LWQYMEFRIMIYLFLALCFIPISIFVIFCSCLSSILFMISAGIWIFFGTIAFL | 51200
40 | LWSHSILILACLIPYLVLRCSTYYCYQAISYIDSNDLAWSNVSIRFDVAMLVV | 69200
41 | LWTCLLITLILPSPLFSSLFFPSPLFSFLLCLFFTFYLSFPSLFLSCPPPFAG | 51800
42 | LWYIGSFVTNGLVNVVGVWKICKLWSIWVRVAFTYMFMCFILFRALALHRIFI | 59200
43 | LWYRFQVVMIRRYHFHFHLLGYRMTYLRFIQFLNIWYFFIAIACLLFIIVIGA | 46300
44 | LYAWLSFFWVLVYVYFFSITVYLVVKGSRSILDLSHGSPSPLLTGSLFACLVW | 58700
45 | LYECLKYMLFTFAGSTHTNYMAYLLETIINLELESSPGLKEALLLCLLINLTG | 48700
46 | LYEHLDEDHRLLWSYLSRLGSYVFQPEIPDLTLYLSELKTVIRCFLNQLIKIS | 56700
47 | LYFLLLLSPLCIGLVSVLCCHIGFIFLFLFFLLQSYQVSYLLLFMYIRFFLCM | 42300
48 | LYFLRPEVLPDRYAFTIPAISFLGTNDYPVLVPDLFLLLTSSFWSPTLLWFFT | 55600
49 | LYFMPVRWYTYHKIGFHYFLADLCYFVNFLMVLCIWFFPNSKRLFISTFCLAF | 72000
50 | LYFTCNERVGACPPSFEYIYDTFFASVTSQEFWRSLFDLEAFYMYLGWYAFCV | 65600

Row | Sequence | transcriptional activation domain activity
51 | LYHALRLCLKFFVVSLVADPEFQRELDYFMKNKPWFIRWPAVFSLNMVWNYTK | 42600
52 | LYILLVFPILLLMMLHSLVTFLYVRAIDPLYGSVPINLHLDKIVWVATFAGAF | 63200
53 | LYIVRLRFVHHFRINTAFVEACQLSIPPFVSVSLVSLAIAVFLNCVGHHFAAF | 39400
54 | LYKSYKHAFHDWIYRLYYYLYHCLVELGLSSAAVDIFRACLPSVKMGNIALTY | 63000
55 | LYLCLVILFKRCIIGGFKAGPRRHDQVTLMRYWFMEKLLPPGENLQGVASILG | 16200
56 | LYLLIFFPVLLWRYLCIGLDSVLCCHIGFHFPYFMCYFFAIMSVSRSFFIHVY | 67200
57 | LYLLIFFPVLLWRYLCIGLDSVLCCHIGFHFPYFMCYFFAIMSVSRSFFYSCI | 50700
58 | LYLLVEILLLATYAVNYNVQYIVLETVTPIAVSSCLVPHTRFLFRLILFIQGL | 63200
59 | LYLRLLVGYLFMILVLLCSHNMMIFLLRSLHHLLTFLTCPLHFFLLLLLLMIT | 39000
60 | LYLSLLKRKTTIWFFVYVVLQNYFLSTLYGRNWFFLFSSQHAPTWSIWLLAFI | 57300
61 | LYLSVLYIIVFTFLPGYTFIFTLTYGYGFAARGLSFLALGVGFLSSLILVIPV | 46500
62 | LYMLKIVNWAVLYASLILATLLWCTIFIIYRILKVGGVTAGMRAYHRVIELLV | 83500
63 | LYNTLFLQLSAIAREFNFPSAAGLCCYMNFSDNGSIFAPRITDDAWIILWRRY | 71800
64 | LYPQDLVSSPAMSHLTANNDDFDDLLSVASMNSNYLLPVNSHGYKHISNLDEL | 69100
65 | LYSIFSLLSIRFFILYSVYVFFFFIGALGGGMLYGLFFFFFFDEVIWYSFFLS | 35400
66 | LYSRYCLLLICIFFVTLQFTTVRFTVRSFYFNTLSFFYLSFWCPQIYRNIMRN | 53600
67 | LYSVCSILLLVVRLFKQLPRQYCSWRVVYTQKLWISITICFTLMRFSFSRDHT | 51100
68 | LYVIIFPILYFSLLLFYFFSSCGGVGWWAVGWHGVLCFFVLLGWVGLGGCCLC | 35900
69 | LYVSLHAVVGNVAEFYFVRYGLALVCALCQTIMFQVTSVTLNGRIGLFFLIAT | 45400
70 | LYYMECSFFRLIIRWIPHWLFLSVKADHVILPLPNHPVGAIIGPNLFCIFLHI | 50900
71 | LYYTAPFNLQPYISYVGCGLVCLVLFFNGFWIFFPGQFSVANLFTSYFAPVFF | 65000
72 | LYYTVIRLFHIYPCRDPLAANSTTFNKSLYLVWSFLCMLVYLAHISYLTLLPR | 54100
73 | MAAAPAAKACAQCNKAETVSGGSDGEEGSSNLHPCNMCKSVLYCSRDCKKAHG | 8830
74 | MAAGFFFFFFLLSFPLFLSFFFCFPFFFSLPSGISFCLPFAPGVVSSFPFPTR | 53800
